Source: patent US5851983A, “Elastase inhibitory polypeptide and process for production thereof by recombinant gene technology” (Teijin Limited, priority 1987, dated 1998)

Key:
[1] = target: T1, polymorphonuclear leucocyte elastase from human sputum (Homo sapiens, UniProt P08246); assay: Simultaneous treatment with healthy human saliva and elastase (Examples 28, 29); assay type: in vitro ADME; details: 37° C.
T1 construct: Polymorphonuclear leukocyte elastase from human sputum (EPC Co; Funakoshi Yakuhin); purchased EPC Co. (via Funakoshi Yakuhin); host or cells: human sputum
T1 sequence (P08246 30-267): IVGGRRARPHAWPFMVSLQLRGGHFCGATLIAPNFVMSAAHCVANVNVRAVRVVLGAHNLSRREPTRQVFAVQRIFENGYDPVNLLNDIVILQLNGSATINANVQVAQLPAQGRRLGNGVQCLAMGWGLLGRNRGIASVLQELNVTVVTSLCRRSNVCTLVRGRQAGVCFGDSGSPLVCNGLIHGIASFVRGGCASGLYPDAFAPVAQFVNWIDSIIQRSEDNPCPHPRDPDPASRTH
Protocol: (1) Healthy human saliva was ultra-filtered through a 0.22 μm filter (Millex GS, Millipore), and to the filtered saliva were added SLPI and polymorphonuclear leucocyte elastase from human sputum (EPC, Funakoshi Yakuhin) to a final concentration of 50 μM respectively. The mixture was incubated at 37° C., samples were taken as time elapsed, and analyzed by SDS-PAGE as described in Example 27.
(2) Next, the band J was transferred to a membrane as described in Example 27, and N-terminal amino acid sequence was analyzed.
(1) According to the same procedure as described in Example 28, to healthy human saliva were dissolved SLPI and polymorphonuclear leucocyte elastase from human sputum to final concentrations of 50 μM and 100 μM respectively, and the mixture was incubated at 37° C. Samples were taken as time elapsed, and analyzed by SDS-PAGE.
(2) Next, N-terminal amino acid sequence of the band M was analyzed as described in Example 27.

[2] = Partial hydrolysis with healthy human saliva (Examples 15, 16); assay type: in vitro ADME; details: 37° C.
Protocol: Healthy human saliva was filtered through a 0.22 μm filter (Milex GS, Milipore), and in the filtrate was dissolved 1 mg/ml of the SLPI prepared in Reference Example 1. The mixture was then incubated at 37° C. for 30 days. As a control, the SLPI was dissolved in physiological saline (Physisalz; Fuso Yakuhin Kogyo), and the mixture was incubated at 37° C. for 30 days.
With an elapse of time, samples were taken and to each sample were added a Tris-HCl buffer (pH 6.8), SDS, 2-mercaptoethamel and glycerol, to final concentration of 60 mM, 2% by weight, 4% by weight and 10% by weight, respectively, and the mixture was subjected to an SDS-PAGE (U.K. Laemmli, Nature, 227, 680, 1970). The gel after electrophoresis was stained with Coomussie Brilliant Blue.
Next, polypeptides in the polyacrylamide gel thus obtained were electrically transferred to a membrane (Immobilon; Milipore) using a Milli Blot-SDE apparatus. After the transfer, the membrane was stained with 0.1% by weight of Coomassie Blue in 40% by weight methanol/1% by weight acetic acid, and washed with water. Then, after air drying, the bands b, c, d and e were excised, and for each band, the PTH-amino acids were cleaved from the N-terminus with an Applied Biosystems Protein Sequences (Applied Biosystems; 470A) and analysed with a PTH analyser (Applied Biosystems, 120A) to determine an amino acid sequence for 10 amino acids from the N-terminus.
According to the same procedure as described in Example 15, (Asn^55 -Ala^107) SLPI prepared in Example 11 was treated with healthy human saliva at 37° C., and a result is shown in FIG. 13. […] After 12 hours, a new band g (MW about 5,500) appeared.
Next, according to the same procedure as described in Example 15, the band g was electrically transferred to a membrane and N-terminal amino acid sequence was analyzed. […] The 6th amino acid could not be determined. The N-terminal amino acid sequence of the band g corresponds to an amino acid sequence starting from Arg^59 of SLPI.

(Asn^55 -Ala^107) SLPI: polypeptide having an amino acid sequence starting with the 55th Asn and ending at the 107th Ala of SLPI (NPTRRKPGKCPVTYGQCLMLNPPNFCEMDGQCKRDLKCCMGMCGKSCVSPVKA)
SDS-PAGE bands on simultaneous treatment with healthy human saliva and elastase ([1]; 50 μM polypeptide, elastase 50 μM (Example 28) or 100 μM (Example 29)): after 48 hours, almost only band M was observed
cleavage site on simultaneous treatment with healthy human saliva and elastase ([1]; N-terminal sequencing of SDS-PAGE band): cleaved at the site between Thr^57 -Arg^58
SDS-PAGE band after incubation in physiological saline without saliva ([2]; 96 hours): only the band f having an MW of about 5,800 remained
SDS-PAGE bands after incubation in healthy human saliva ([2]; 96 hours, band f = starting polypeptide, band g MW about 5,500): only the band g remained after 96 hours of incubation
cleavage sites in healthy human saliva ([2]; SDS-PAGE bands, N-terminal sequencing): cleaved at a site between Arg^58 -Arg^59
